What all share (experiment): two-hybrid; Matchmaker GAL4 system; Ste5 forms on Gal4-AD (pGADT7, AH109), Ste7 orthologs on Gal4-BD (pGBKT7, Y187), diploids on SC-Leu-Trp; quantitative β-galactosidase assay of cell lysate with ONPG; units of the same BD-Ste7 with void pGADT7 subtracted; mean of three colonies
For experiment [1], the target named is KlSte7 (Ste7 of Kluyveromyces lactis), Gal4-BD fusion (K. lactis) (UniProt Q6CSZ8).
Experiment [2] concerns the target KmSte7 (Ste7 of Kluyveromyces marxianus), Gal4-BD fusion (K. marxianus).
The target in experiment [3] is T1, KlSte7 (Ste7 of Kluyveromyces lactis), Gal4-BD fusion (K. lactis, UniProt Q6CSZ8 1-504).
T1 construct: Ste7 (MAPKK) of Kluyveromyces lactis, KEGG KLLA0_C16577g; ORF cloned into the EcoRI site of pGBKT7; source: yeast two-hybrid fusion (pGBKT7, transformed into Y187, diploid with AH109)
T1 sequence (looked up): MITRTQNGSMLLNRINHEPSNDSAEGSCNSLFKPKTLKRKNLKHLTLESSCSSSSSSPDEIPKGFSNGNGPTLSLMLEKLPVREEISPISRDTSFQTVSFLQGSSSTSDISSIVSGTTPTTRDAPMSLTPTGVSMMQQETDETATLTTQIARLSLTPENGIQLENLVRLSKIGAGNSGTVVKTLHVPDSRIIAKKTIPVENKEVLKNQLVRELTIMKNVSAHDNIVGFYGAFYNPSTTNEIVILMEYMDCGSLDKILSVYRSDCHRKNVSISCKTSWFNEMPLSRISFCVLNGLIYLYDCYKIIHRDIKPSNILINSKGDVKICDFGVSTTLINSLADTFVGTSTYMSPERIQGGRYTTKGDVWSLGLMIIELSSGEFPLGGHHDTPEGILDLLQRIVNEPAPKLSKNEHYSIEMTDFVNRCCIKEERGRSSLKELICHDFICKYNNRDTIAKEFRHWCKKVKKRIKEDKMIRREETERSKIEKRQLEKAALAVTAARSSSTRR
The conditions noted are these: partners not purified.

For experiment [4], the target named is T2, KmSte7 (Ste7 of Kluyveromyces marxianus), Gal4-BD fusion (K. marxianus, UniProt A0ABX6F0V6 1-494).
T2 construct: Ste7 (MAPKK) of Kluyveromyces marxianus, KEGG KLMA_70246; ORF cloned into the EcoRI site of pGBKT7; source: yeast two-hybrid fusion (pGBKT7, transformed into Y187, diploid with AH109)
T2 sequence (looked up): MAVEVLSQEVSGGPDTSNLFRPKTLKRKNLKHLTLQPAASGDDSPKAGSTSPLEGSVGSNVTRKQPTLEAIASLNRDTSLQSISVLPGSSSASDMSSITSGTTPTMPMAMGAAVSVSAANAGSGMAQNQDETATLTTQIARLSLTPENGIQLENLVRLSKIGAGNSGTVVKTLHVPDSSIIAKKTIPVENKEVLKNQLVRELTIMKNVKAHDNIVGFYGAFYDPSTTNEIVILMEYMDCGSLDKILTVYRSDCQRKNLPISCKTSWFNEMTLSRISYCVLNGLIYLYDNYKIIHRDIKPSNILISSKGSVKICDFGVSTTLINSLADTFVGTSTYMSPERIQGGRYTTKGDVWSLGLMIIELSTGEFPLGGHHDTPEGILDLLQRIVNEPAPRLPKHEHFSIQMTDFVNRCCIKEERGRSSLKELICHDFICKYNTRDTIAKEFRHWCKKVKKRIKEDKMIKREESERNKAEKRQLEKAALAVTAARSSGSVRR
The conditions noted are these: partners not purified.

With “KmSte5-KlBD (KmSte5 with its Ste7-binding region replaced by that of KlSte5), Gal4-AD fusion (from UniProt A0ABX6ETE1 1-659)”, the values for the strength of the interaction (units of β-galactosidase) (units of β-galactosidase) in experiment [1] and in experiment [2] were 31.8 and 14.9, respectively.

For “KlSte5-KmBD (KlSte5 with its Ste7-binding region replaced by that of KmSte5), Gal4-AD fusion (from UniProt A0ABX6ETE1 660-763)”, the strength of the interaction (units of β-galactosidase) (units of β-galactosidase) came to 20.3 in experiment [1] and 11 in experiment [2].

B1: KmSte5 (Ste5 of Kluyveromyces marxianus), Gal4-AD fusion (natural protein, K. marxianus, UniProt A0ABX6ETE1 1-763, looked up)
chain: MNSQEILFQLTNVGSTPVSSKNDTMTTPTSGSNTSSPRRWTELFSKKRAKTPSISTPSTSSSAVSSLHDGSPVRPGSKQSFRHFNIDSALQYPPVMQSPESYHSAGNGNGSGHGNVQVGKKPHRRGGNKSWKNEKCCICRDLCSFKGSTERVIILQCNHMCHEDCLMVSLNPVSKTFDLYDALPKCQMCSMLCVPSQEDMKQRLRNHLLTVNSSSSDQLSSAIPQVQSQLKPHNSPENTRTGIGPLAPPPPPLSMRNAVKTTPTNRDIRLSFASSLKPPVFVTPSVRDSWRLPRASSIKRRSNNYRGSTISALSSITSSSSLYNDSQLVCSLHIQRQYFMQAFLTSFEEIKPWEIDSRYGLLRLIDYFLISLDDQGFKQCCCYLFSEYLLLCQPSSKASSNVLQFSSYRFLQLNSPANIELIDATTLELKAKTGERVRIKPFNSDTKSLEKWITAFFDPTLTFGNLDFTSIPLPDFVSAMPSADDSRTIIVRRQNTINETIVTAGPRDSTLFTSISSILSIKRSTPRELNVILQVDRRKLKSENLITIKNVLSALTWKYHDFNCCIVGVDGLIVKIGGAREILDSWAEISDAGTQPFSPALLYKTWYKERGKVCNNAGVLVISNASMETGKTCLFHDYRMFANVGKRHVNELKIKVGFLNVDYTNKIKELVEIQDWNELLEAVSYSFNINFDDDDDDDDDEGDSDTSDSFSVGSSEFNKSLNSDNERLVRPPSPTSFEDIEADSHSQFDDDSELQHSIIYDYL
notes: Ste5 of Kluyveromyces marxianus, KEGG KLMA_20171; probably the whole ORF; also called natural KmSte5; source: yeast two-hybrid fusion (pGADT7, transformed into AH109, diploid with Y187)
For the molecule B1, the “strength of the interaction (units of β-galactosidase)” value in experiment [3] was 30 units of β-galactosidase; in experiment [4], 22.8 units of β-galactosidase.

B2: KlSte5 (Ste5 of Kluyveromyces lactis), Gal4-AD fusion (natural protein, K. lactis, UniProt Q6CKB4 1-746, looked up)
chain: MSRGNTSSMNSQDILFQLTNVGSSPVPKLDTGSTSGSNTSSPRRWTELFSKKRVKTPSVGTPSTASSMISSFYDSSPIRPVSKQHPKHLLVDPIMPPPPIMLSPIGHETLGKKPTRKNGNKSWKNERCCICGDLCSFKGSNEKVIPLECNHMCHEDCLMVSLRPLPHKSNLYDALPKCDICSMSCIPGQEDMRQKVRSHLLTLPDDGESVGLEPYNPQENYERIKLCDADLLPKHSGNDETFPHLQTTRTTARNNDIRLSFAFSLKPGKTVTPSLRDSIRLHRSRSIKRRSNFRGSTVSGLSSIVSSSSKDDCQLPSLHVQRQYFIQAFLNSFSEVKPWEIDAKYGLLRLIDNFLISLDGINFQHQVCYLFSEYLLVCRPSPATSANVLQFSSYRCFQLNNPPELDLLDATTLESKSRSGERILIKPYGLDTKALEKWITALFDLTLPFGNYDFTSIKVPEFVACIPSTNDTGTIIVRRQSTLNETLIPKTIRDSSVLTSISSILSIKRATPNELNLVLQLDKRKTNEDNIVSIKNVILALTWKFSTFNCCIVDVEGMVINCGTANDVLNSLAGPIKSNGNQPFSPDLLHQLWYRQKQKICKNVGVVVLSNSSMENGKSCLFSDYRIFADAGKRHPNELKIKVGFLNVDYSDNIKELVEIQDWNELLEAVAYSFNLSFDDDLDSSDCVSTSSSDFEVDSVPDKNRTFRLSSPISWENHVQADLTGSMNGISESIEDRQSNHMYDYL
notes: Ste5 of Kluyveromyces lactis, KEGG KLLA0_F12023g; probably the whole ORF; source: yeast two-hybrid fusion (pGADT7, transformed into AH109, diploid with Y187)
In the case of B2, the “strength of the interaction (units of β-galactosidase)” value in experiment [3] is 13.7 units of β-galactosidase; in experiment [4], 8.13 units of β-galactosidase.
